Measurements from US20150010920A1.

Biological target: trypsin from bovine pancreas (Sigma, St. Louis) (bovine) (UniProt P00760)
Assay: inhibition kinetics of trypsin (0.005 µM) digesting EGFP-T/C1 at 0-100 nM leupeptin, absorbance at 490 nm, fitted with Enzfitter

trypsin from bovine pancreas (Sigma, St. Louis) (bovine), sequence (P00760 24-246): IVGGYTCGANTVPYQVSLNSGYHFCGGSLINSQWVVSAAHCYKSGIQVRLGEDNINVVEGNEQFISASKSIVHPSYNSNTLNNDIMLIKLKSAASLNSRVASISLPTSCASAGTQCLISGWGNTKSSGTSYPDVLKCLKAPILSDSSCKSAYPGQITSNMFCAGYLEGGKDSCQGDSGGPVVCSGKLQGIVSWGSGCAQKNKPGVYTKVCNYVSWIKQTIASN

## leupeptin (Sigma, St. Louis) (peptide)
  Ki: 0.0311 µM
